B1: human FK506 Binding Protein 51 (FKBP51) (other)
chain: MTTDEGAKNNEESPTATVAEQGEDITSKKDRGVLKIVKRVGNGEETPMIGDKVYVHYKGKLSNGKKFDSSHDRNEPFVFSLGKGQVIKAWDIGVATMKKGEICHLLCKPEYAYGSAGSLPKIPSNATLFFEIELLDFKGEDLFEDGGIIRRTKRKGEGYSNPNEGATVEIHLEGRCGGRMFDCRDVAFTVGEGEDHDIPIGIDKALEKMQREEQCILYLGPRYGFGEAGKPKFGIEPNAELIYEVTLKSFEKAKESWEMDTKEKLEQAAIVKEKGTVYFKGGKYMQAVIQYGKIVSWLEMEYGLSEKESKASESFLLAAFLNLAMCYLKLREYTKAVECCDKALGLDSANEKGLYRRGEAQLLMNEFESAKGDFEKVLEVNPQNKAARLQISMCQKKAKEHNERDRRIYANMFKKFAEQDAKEEANKAMGKKTSEGVTNEKGTDSQAMEEEKPEGHV
notes: Endogenous protein in peripheral blood (lymphocyte) lysate of patients and controls
B2: human glucocorticoid receptor (GR) (receptor)
chain: MDSKESLTPGREENPSSVLAQERGDVMDFYKTLRGGATVKVSASSPSLAVASQSDSKQRRLLVDFPKGSVSNAQQPDLSKAVSLSMGLYMGETETKVMGNDLGFPQQGQISLSSGETDLKLLEESIANLNRSTSVPENPKSSASTAVSAAPTEKEFPKTHSDVSSEQQHLKGQTGTNGGNVKLYTTDQSTFDILQDLEFSSGSPGKETNESPWRSDLLIDENCLLSPLAGEDDSFLLEGNSNEDCKPLILPDTKPKIKDNGDLVLSSPSNVTLPQVKTEKEDFIELCTPGVIKQEKLGTVYCQASFPGANIIGNKMSAISVHGVSTSGGQMYHYDMNTASLSQQQDQKPIFNVIPPIPVGSENWNRCQGSGDDNLTSLGTLNFPGRTVFSNGYSSPSMRPDVSSPPSSSSTATTGPPPKLCLVCSDEASGCHYGVLTCGSCKVFFKRAVEGQHNYLCAGRNDCIIDKIRRKNCPACRYRKCLQAGMNLEARKTKKKIKGIQQATTGVSQETSENPGNKTIVPATLPQLTPTLVSLLEVIEPEVLYAGYDSSVPDSTWRIMTTLNMLGGRQVIAAVKWAKAIPGFRNLHLDDQMTLLQYSWMFLMAFALGWRSYRQSSANLLCFAPDLIINEQRMTLPCMYDQCKHMLYVSSELHRLQVSYEEYLCMKTLLLLSSVPKDGLKSQELFDEIRMTYIKELGKAIVKREGNSSQNWQRFYQLTKLLDSMHEVVENLLNYCFQTFLDKTMSIEFPEMLAEIITNQIPKYSNGNIKKLLFHQK
notes: as for B1

Key:
[1] = molecular target: B2; assay: co-immunoprecipitation with anti-FKBP51 antibody from human peripheral blood protein, Western blot for GR
[2] = molecular target: B1; assay: co-immunoprecipitation from human peripheral blood samples, densitometry, n=21
[3] = molecular target: B1; assay: co-immunoprecipitation from human peripheral blood samples, densitometry, n=22

| Binder | binding result [1] | GR-FKBP51 complex level, PTSD patients relative to trauma controls (Trauma = 1) [2] | GR-FKBP51 complex level, PTSD patients relative to healthy controls (CTRL = 1) [3] |
| --- | --- | --- | --- |
| B1 | binds | – | – |
| B2 | – | 1.46 fold of control | 1.41 fold of control |
